# B1: beta-lactamase: unmodified beta-lactamase protein, SEQ ID NO:11 (protein)
# chain: TPVSEKQLAEVVANTITPLMKAQSVPGMAVAVIYQGKPHYYTFGKADIAANKPVTPQTLFELGSISKTFTGVLGGDAIARGEISLDDAVTRYWPQLTGKQWQGIRMLDLATYTAGGLPLQVPDEVTDNASLLRFYQNWQPQWKPGTTRLYANASIGLFGALAVKPSGMPYEQAMTTRVLKPLKLDHTWINVPKAEEAHYAWGYRDGKAVRVSPGMLDAQAYGVKTNVQDMANWVMANMAPENVADASLKQGIALAQSRYWRIGSMYQGLGWEMLNWPVEANTVVETSFGNVALAPLPVAEVNPPAPPVKASWVHKTGSTGGFGSYVAFIPEKQIGIVMLANTSYPNPARVEAAYHILEALQ
# modifications: beta-lactamase protein
# Test: Immunogenicity after IV or IP administration to normal mice (IgG1 antibodies)
# Type: in vivo, CB6F1/J mice
# Settings: 20 ug in alum, days 1, 8 and 15, FIG. 20
# Method: CAB1.11i and CAB1.2i were diluted in PBS to 200 ug/ml. For the i.p. group (group 5), CAB1.11i was diluted in a 1:1 solution of alum to PBS (resulting concentration=200 ug/ml) and vortexed rapidly for 10 minutes. The mixture was left at 2-8° C. for a minimum of 15 minutes. The mixture was revortexed 1 minute prior to injection into mice. The dosing solution was stored on ice prior to administration.
# Wt BLA was diluted in PBS to 400 ug/ml. For the i.p. group, group 4, wt BLA was diluted in a 1:1 solution of alum to a PBS with resulting concentration=200 ug/ml and vortexed rapidly for 10 minutes. The mixture was left at 2-8° C. for a minimum of 15 minutes. The mixture was then revortexed 1 minute prior to injection into mice. The solution was stored on ice prior to administration.
# Study design is outlined in Table 7. Female CB6F1/J mice were used for each group. Mice undergoing i.v. injections were placed under a heating lamp for approximately 3 minutes to vasodilate the tail vein, and then placed in a mouse restrainer for the i.v. injection. On days 1, 8 and 15, three mice of each strain each were administered CAB1.2i (20 ug), CAB1.11i (20 ug), or wt BLA (20 ug) intravenously, or wt BLA (20 ug) or CAB1.11i (20 ug) complexed with alum administered by an i.p. injection. Dose concentrations and volumes are outlined in Table 8. Dose concentrations were formulated based on a 100 uL injection/mouse. […]
molecule,measurement,value
B1,antibody response (anti-test article IgG1),greatest antibody response

# — patent publication US8728470B2, “CAB molecules” (Danisco US Inc., priority 2004, dated 2014)
